Assay results reported in US20150291693A1 (FRAUNHOFER GESELLSCHAFT ZUR FORDERUNG DER ANGEWANDTEN …, published 2015).

T1: CD30 (human, UniProt P28908 19-595)
T1 sequence (looked up): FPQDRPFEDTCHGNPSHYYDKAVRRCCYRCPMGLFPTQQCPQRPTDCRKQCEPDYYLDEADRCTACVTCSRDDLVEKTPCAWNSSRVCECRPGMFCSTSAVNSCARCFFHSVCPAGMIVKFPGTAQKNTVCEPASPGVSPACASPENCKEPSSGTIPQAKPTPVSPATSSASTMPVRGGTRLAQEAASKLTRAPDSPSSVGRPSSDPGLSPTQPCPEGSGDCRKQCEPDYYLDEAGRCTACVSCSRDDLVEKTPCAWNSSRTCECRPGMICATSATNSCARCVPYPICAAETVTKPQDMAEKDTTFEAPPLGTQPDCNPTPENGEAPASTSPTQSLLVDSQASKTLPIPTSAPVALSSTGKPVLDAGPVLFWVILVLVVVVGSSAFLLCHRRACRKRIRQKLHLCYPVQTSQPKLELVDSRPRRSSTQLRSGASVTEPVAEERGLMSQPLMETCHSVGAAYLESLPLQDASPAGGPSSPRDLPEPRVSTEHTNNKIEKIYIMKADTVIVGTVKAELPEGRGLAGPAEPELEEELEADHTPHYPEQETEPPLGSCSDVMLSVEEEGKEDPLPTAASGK

B1: Gm-Ki4(scFv) (other)
chain: IIGGREVIPHSRPYMASLQRNGSHLCGGVLVHPKWVLTAAHCLAQRMAQLRLVLGLHTLDSPGLTFHIKAAIQHPRYKPVPALENDLALLQLDGKVKPSRTIRPLALPSKRQVVAAGTRCSMAGWGLTHQGGRLSRVLRELDLQVLDTRMCNNSRFWNGSLSPSMVCLAADSKDQAPCKGDSGGPLVCGKGRVLAGVLSFSSRVCTDIFKPPVATAVAPYVSWIRKVTGRSAAEHEGDAAQPAMAQVKLQESGTELAKPGAAVKMSCKASGYTFTDYWMHWVKQRPGQGLEWIGYINPNTAYTDYNQKFKDKATLTADKSSSTAYMQLRSLTSEDSAVYYCAKKTTQTTWGFPFWGQGTTVTVSSGGGGSGGGGSGGGGSDIVLTQSPKSMAMSVGERVTLSCKASENVDSFVSWYQQKPGQSPKLLIYGASNRYTGVPDRFAGSGSGRDFTLTISSVQAEDLADYHCGQNYRYPLTFGAGTKLEIKR
B2: Gm-H22(scFv) (other)
chain: IIGGREVIPHSRPYMASLQRNGSHLCGGVLVHPKWVLTAAHCLAQRMAQLRLVLGLHTLDSPGLTFHIKAAIQHPRYKPVPALENDLALLQLDGKVKPSRTIRPLALPSKRQVVAAGTRCSMAGWGLTHQGGRLSRVLRELDLQVLDTRMCNNSRFWNGSLSPSMVCLAADSKDQAPCKGDSGGPLVCGKGRVLAGVLSFSSRVCTDIFKPPVATAVAPYVSWIRKVTGRSAAEHEGDAAQPAMAQVQLVESGGGVVQPGRSLRLSCSSSGFIFSDNYMYWVRQAPGKGLEWVATISDGGSYTYYPDSVKGRFTISRDNSKNTLFLQMDSLRPEDTGVYFCARGYYRYEGAMDYWGQGTPVTVSSGGGGSGGGGSGGGGSDIQLTQSPSSLSASVGDRVTITCKSSQSVLYSSNQKNYLAWYQQKPGKAPKLLIYWASTRESGVPSRFSGSGSGTDFTFTISSLQPEDIATYYCHQYLSSWTFGQGTKLEIK

Legend:
CD30 = molecular target: T1, CD30; assay: cell-based or functional assay
[1] = molecular target: CD64 (Fc gamma receptor I) (human, UniProt P12314 16-374); assay: cell-based or functional assay
Sequence of CD64 (Fc gamma receptor I) (P12314 16-374, form in doubt): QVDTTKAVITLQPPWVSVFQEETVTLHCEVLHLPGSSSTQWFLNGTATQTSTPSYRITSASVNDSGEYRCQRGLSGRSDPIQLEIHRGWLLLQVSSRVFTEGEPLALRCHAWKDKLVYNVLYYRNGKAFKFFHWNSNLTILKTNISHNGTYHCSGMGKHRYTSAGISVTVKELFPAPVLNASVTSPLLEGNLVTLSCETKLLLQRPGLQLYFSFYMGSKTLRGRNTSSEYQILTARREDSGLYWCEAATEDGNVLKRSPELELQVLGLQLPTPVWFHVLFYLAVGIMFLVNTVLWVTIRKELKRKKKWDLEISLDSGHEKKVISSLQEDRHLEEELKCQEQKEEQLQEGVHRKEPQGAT

Binder | IC50, XTT viability assay on L540 cells (CD30) | IC50, XTT viability assay on Interferon γ stimulated HL60 cells [1]
B1 | 272 nM | 
B2 |  | 1.2 nM
